Results as given in patent US20090239795A1.

Target: rat GLP-1 receptor (rat) (UniProt P32301)
Experiment: cell-based or functional assay

Potency (nM), cAMP accumulation in CHO-GLP-1R cells [nM] | Substance
1.3 | GLP-1(7-37,A8G,K34A) (PEAPTD)2 (SEQ ID NO: 5) mTf fusion protein (from UniProt P01275 98-128) (ligand)
0.85 | Exendin-4(1-30) (PEAPTD)2 mTf fusion protein (ligand)
0.33 | Exendin-4(1-31) (PEAPTD)2 mTf fusion protein (ligand)
